T1: 33mer peptide (LQLQPFPQPQLPYPQPQLPYPQPQLPYPQPQPF)
T1 chain: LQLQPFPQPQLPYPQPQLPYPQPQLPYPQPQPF

T2: fluorescently quenched α-gliadin hexapeptide analogue QXL520-PQPQLP-K(5-FAM)-NH2
T2 chain: PQPQLP

B1: Homologue 12 (NCBI YP_003658449) (protein)
chain: MTQPRYTPLPGSEREAPLLAARSNATAARASRAQTASATVVLRRRSELPEALVLDQQFISSDELAARYGADPVDIEKVRSVLERFKVSVVEVDAASRRVKVEGAVADIERAFNIALHSASGTDPHSGRGFEYRYRTGVLSVPAELGGIVTAVLGLDNRRQAETRLRVVPAAALGSSYTPVQLGEIYNFPQDATGAGQRIAIIELGGGYTPAGLRRYFASLGVVPPKVAAVSVDGAQNAPGPDPGADGEVQLDVEVAGALAPGAHVLVYFAPNTDQGFLDAVSQAAHATPPPTAISISWGASEDSWTASARDALNQALRDAAALGVTVTAAAGDSGSSDGVPDRRAHVDFPASSPYVLATGGTSLRADPATGVVQSETVWNDSQGSTGGGVSDVFPRPAWQAHVDVPHAGRGVPDVSAVADPATGYQVLVDNQPAVIGGTSAVAPLWAALVARLAESLGRPLGLLQPLVYPRTPGSTAYPGFRDITIGNNGAYKAGKGWDAATGLGVPDGTELLAHLRGLNGSE
B2: Homologue 13 (NCBI YP_004348568) (protein)
chain: MARHLHAGSEPKVITESKCIGACDPAERIHVTVMLRREGEQALDALVDKLASGDPAAKPVSREDFAKRFGARADDIQHTEAFAKRHQLTVERVDPVQSVVELAGTIAQFENAFGVKLEKYEHHAIGSFRARTGAIALPDELHDAVTAVLGLDTRPQAHPHFRFRPPFQPARSGAGTSYTPLQLASIYNFPEGDGAGQCIALVELGGGYRAADIRQYFEQLGVKPPKLVDVSVNGGRNAPTDDPNGPDGEVALDIEVAGAIAPGATIAVYFAGNSDAGFIQSVNQAIHDSTNRPSVVSISWGGPEASWTQQSITAFNNVLKTAASLGVTVCAASGDSGSSDGLQDGSNHVDFPASSPYVLACGGTTLDAQAGQGIRREVVWNDEAASGGAGGGGVSAVFPAPSYQKGLSAKATGGGSTPLSQRGVPDVAGDASPTTGYIISIAGTTAVLGGTSAVAPLWAALIARINANGKSPVGWANPKLYAQPGAFHDITQGNNGAFAASEGWDACTGLGSPDGAKVAAALQGASGGSQQGRATGA
B3: Homologue 26 (NCBI YP_004030750) (protein)
chain: MHSYLKQQSHMQSYLEQENHMRSYLEMRKKPYFDDLANIRPGGLTPAQVCQAYQFAKVQPVRPVKLGIVSLAGQYLSSDMSKAFTGYGLPTPVVSTAGSQVLGDLWSNVENMMDIEIAGAAWAYATGTAATLLMQFEPNNETGIPNAINALVAAGCEVISISWGAPANLQTMEAITARKEACKQAAVQNVHVFAASGDESLNDGTNSRTPDDPCCDPNVWGVGGTRLVLQADGSIAQESAWGDGNAADKGGGGGFDSREPLPDYQVGVVHSEHRGSPDSSANADPGTGYAIVANGQWLIGGGTSASAPLTAGYVAAILSTLPGPISQSVLQRKLYTAHKTAFRDILLGSNGAPARPGWEEATGLGSINGPGLAAALQS
B4: Kumamolysin-As N291D, Q361D (protein)
chain: MSDMEKPWKEGEEARAVLQGHARAQAPQAVDKGPVAGDERMAVTVVLRRQRAGELAAHVERQAAIAPHAREHLKREAFAASHGASLDDFAELRRFADAHGLALDRANVAAGTAVLSGPVDAINRAFGVELRHFDHPDGSYRSYLGEVTVPASIAPMIEAVLGLDTRPVARPHFRMQRRAEGGFEARSQAAAPTAYTPLDVAQAYQFPEGLDGQGQCIAIIELGGGYDEASLAQYFASLGVPAPQVVSVSVDGASNQPTGDPSGPDGEVELDIEVAGALAPGAKFAVYFAPDTDAGFLDAITTAIHDPTLKPSVVSISWGGPEDSWTSAAIAAMNRAFLDAAALGVTVLAAAGDSGSTDGEDDGLYHVDFPAASPYVLACGGTRLVASGGRIAQETVWNDGPDGGATGGGVSRIFPLPAWQEHANVPPSANPGASSGRGVPDLAGNADPATGYEVVIDGEATVIGGTSAVAPLFAALVARINQKLGKAVGYLNPTLYQLPADVFHDITEGNNDIANRAQIYQAGPGWDPCTGLGSPIGVRLLQALLPSASQPQPGSTENLYFQSGALEHHHHHH
B5: Kumamolysin-As N291D, G319S, D358G, Q361D, D368H (protein)
chain: B4 chain with G319S, D358G, D368H
B6: Kumamolysin-As N291D, D293A, D358N (protein)
chain: B4 chain with D293A, D358N, D361Q
B7: Kumamolysin-As T292S, N291D, G319S, D358G, D368H (protein)
chain: B4 chain with T292S, G319S, D358G, D361Q, D368H
B8: Kumamolysin-As N291D, G319S, S354N, D358G, D368H (protein)
chain: B4 chain with G319S, S354N, D358G, D361Q, D368H
B9: Kumamolysin-As N291D, D293A, G319S, S354N, D358G, Q361D, D368H (protein)
chain: B4 chain with D293A, G319S, S354N, D358G, D368H
B10: Kumamolysin-As N291D, D293A, Q361D, D358N (protein)
chain: B4 chain with D293A, D358N
B11: Kumamolysin-As S262G, T292S, N291D, G319S, D358G, D368H (protein)
chain: B4 chain with S262G, T292S, G319S, D358G, D361Q, D368H
B12: Kumamolysin-As S354N, D358G, D368H (protein)
chain: B4 chain with D291N, S354N, D358G, D361Q, D368H
B13: Kumamolysin-As G319S, D358G, D368H (protein)
chain: B4 chain with D291N, G319S, D358G, D361Q, D368H
B14: Kumamolysin-As D293A (protein)
chain: B4 chain with D291N, D293A, D361Q
B15: Kumamolysin-As N291D, D293A (protein)
chain: B4 chain with D293A, D361Q
B16: Kumamolysin-As D358N (protein)
chain: B4 chain with D291N, D358N, D361Q
B17: Kumamolysin-As D293T, N291D, G319S, D358G, D368H (protein)
chain: B4 chain with D293T, G319S, D358G, D361Q, D368H
B18: Kumamolysin-As T357A (protein)
chain: B4 chain with D291N, T357A, D361Q
B19: Kumamolysin-As N291D, D358N (protein)
chain: B4 chain with D358N, D361Q
B20: Kumamolysin-As D358G (protein)
chain: B4 chain with D291N, D358G, D361Q
B21: Kumamolysin-As G319S, S354N, D358G, D368H (protein)
chain: B4 chain with D291N, G319S, S354N, D358G, D361Q, D368H
B22: Kumamolysin-As N291D, G319S, D358G, D368H (protein)
chain: B4 chain with G319S, D358G, D361Q, D368H
B23: Kumamolysin-As V119D, S262K, D293T, N291D, G319S, D358G, D368H (protein)
chain: B4 chain with V119D, S262K, D293T, G319S, D358G, D361Q, D368H
B24: Kumamolysin-As N291D, D293A, D358G, Q361D (protein)
chain: B4 chain with D293A, D358G
B25: Kumamolysin-As G319S, D368S (protein)
chain: B4 chain with D291N, G319S, D361Q, D368S
B26: Kumamolysin-As N291D (protein)
chain: B4 chain with D361Q
B27: Kumamolysin-As N291D, D293A, G319S, D358G, Q361D, D368H (protein)
chain: B4 chain with D293A, G319S, D358G, D368H
B28: Kumamolysin-As D358G, D368H (protein)
chain: B4 chain with D291N, D358G, D361Q, D368H
B29: Kumamolysin-As N291D, Q361D, D358G (protein)
chain: B4 chain with D358G
B30: Kumamolysin-As N291D, G319S, S354N, D358G, Q361D, D368H (protein)
chain: B4 chain with G319S, S354N, D358G, D368H
B31: Kumamolysin-As S262K, D293N, N291D, G319S, D358G, D368H (protein)
chain: B4 chain with S262K, D293N, G319S, D358G, D361Q, D368H

Changes are numbered by the printed parent chain. Names may count otherwise.

In one data set the target is T1, 33mer peptide ….
As to B1, the “Degradation pattern of 33mer (60 min)” value is “WT-like”.
B2: the “Degradation pattern of 33mer (60 min)” value is reported as “Max-like” and the “activity against the 33mer peptide” value is “demonstrated significant activity against the 33mer peptide”.
Consider B3, for which the “Degradation pattern of 33mer (60 min)” value was “Max-like” and the “activity against the 33mer peptide” value is listed as “had very strong activity comparable to KumaMax™ at breaking down the 33mer peptide”.

For another data set, the target named is T2, fluorescently quenched α-gliadin ….
As for B4, the Fold Change in Activity of PQ Hydrolysis Relative to Wild Type Kumamolysin-As is 7.5 fold.
Consider B5, for which the Fold Change in Activity of PQ Hydrolysis Relative to Wild Type Kumamolysin-As was found to be 23.1 fold.
Take B6: the Fold Change in Activity of PQ Hydrolysis Relative to Wild Type Kumamolysin-As stood at 24 fold.
For B7, the Fold Change in Activity of PQ Hydrolysis Relative to Wild Type Kumamolysin-As worked out at 49 fold.
In turn, B8 yielded a Fold Change in Activity of PQ Hydrolysis Relative to Wild Type Kumamolysin-As of 54.6 fold.
In the case of B9, the Fold Change in Activity of PQ Hydrolysis Relative to Wild Type Kumamolysin-As came to 58 fold.
Regarding B10, the Fold Change in Activity of PQ Hydrolysis Relative to Wild Type Kumamolysin-As was found to be 14.8 fold.
For B11, the Fold Change in Activity of PQ Hydrolysis Relative to Wild Type Kumamolysin-As is 29 fold.
In the case of B12, the Fold Change in Activity of PQ Hydrolysis Relative to Wild Type Kumamolysin-As is 9 fold.
Turning to B13, the Fold Change in Activity of PQ Hydrolysis Relative to Wild Type Kumamolysin-As worked out at 7 fold.
B14 had a Fold Change in Activity of PQ Hydrolysis Relative to Wild Type Kumamolysin-As of 3 fold.
B15 came in with a Fold Change in Activity of PQ Hydrolysis Relative to Wild Type Kumamolysin-As of 15 fold.
Protein B16 gave a Fold Change in Activity of PQ Hydrolysis Relative to Wild Type Kumamolysin-As of 4 fold.
On to B17, for which the Fold Change in Activity of PQ Hydrolysis Relative to Wild Type Kumamolysin-As came out at 58 fold.
Turning to B18, the Fold Change in Activity of PQ Hydrolysis Relative to Wild Type Kumamolysin-As worked out at 2 fold.
Regarding B19, the Fold Change in Activity of PQ Hydrolysis Relative to Wild Type Kumamolysin-As was 18.9 fold.
B20 gave a Fold Change in Activity of PQ Hydrolysis Relative to Wild Type Kumamolysin-As of 3 fold.
B21: the Fold Change in Activity of PQ Hydrolysis Relative to Wild Type Kumamolysin-As was 5 fold.
In the case of B22, the Fold Change in Activity of PQ Hydrolysis Relative to Wild Type Kumamolysin-As was determined as 93 fold.
For B23, the Fold Change in Activity of PQ Hydrolysis Relative to Wild Type Kumamolysin-As worked out at 120 fold.
B24: the Fold Change in Activity of PQ Hydrolysis Relative to Wild Type Kumamolysin-As stood at 15 fold.
Take B25: the Fold Change in Activity of PQ Hydrolysis Relative to Wild Type Kumamolysin-As is 2 fold.
Protein B26 displayed a Fold Change in Activity of PQ Hydrolysis Relative to Wild Type Kumamolysin-As of 10 fold.
Still for that read-out and setting: for B27 the value was 40.9 fold; for B28, 6 fold; for B29, 20 fold.
B30 displayed a Fold Change in Activity of PQ Hydrolysis Relative to Wild Type Kumamolysin-As of 50 fold.
B31 came in with a Fold Change in Activity of PQ Hydrolysis Relative to Wild Type Kumamolysin-As of 62 fold.

(Values after patent publication US10487318.)
